Substitutions are numbered along the chain they refer to. In names and notes the source's numbering stands.
Legend:
[1] = target: T1, CD22 antigen on the surface of target cells (Raji, REH, NALM6, JVM2, 3E09, 3D11) (human, UniProt P20273 20-847); assay: cell-based or functional assay
[2] = target: T2, CD22-FITC protein (Acro Biosystem, Cat. No. SI2-HF2H6) (UniProt P20273 20-687, FITC label); assay: flow cytometry of CAR-T cells stained with FITC-CD22 protein and APC anti-CD8, quadrant gate
T2 construct: Bought reagent; also called FITC-CD22 protein; CD22 protein
Procedure: Cell samples were stained with APC mouse anti-human CD8, PE anti-human EGFR and FITC-CD22 protein.
When the cells were cultured to the 6th or 7th day, the expression of CAR molecules, tEGFR molecules and CD8 on the cell surface was detected by flow cytometry. […] On day 6 of cell culture, approximately 5 ×10^5 cells were removed from each sample individually, and the medium was removed by centrifugation at 500 g. […] The mixtures were mixed well and incubated at 4° C. in the dark for 20 min. After completion of incubation, the cells were washed twice with PBS+1% HSA solution again, re-suspended in 200 μL of PBS+1% HSA solution, and then loaded onto the instrument for testing.

[3] = target: T1, CD22 antigen on the surface of target …; assay: cell-based or functional assay; remark: listed apart in the source
[4] = target: T1, CD22 antigen on the surface of target …; assay: cell-based or functional assay; remark: listed apart in the source
human CD22 [5] = target: T3, human CD22 (human, UniProt P20273 20-687, limits assumed); assay: ForteBio, antibody in the form of IgG, avid
T3 construct: CD22-llama-Fc and CD22-his are named only for the yeast library sorting; also called CD22 antigen

human CD22 [6] = target: T3, human CD22; assay: ForteBio, antibody in the form of Fab, monovalent

B1: clone 80 CAR (CD22-targeted chimeric antigen receptor, clone 80 scFv with CD8α hinge and transmembrane region, 4-1BB and CD3z), on reporter cells or CAR-T cells (other)
chain: QVQLQESGPGLVKPSGTLSLTCAVSGGSISSSNWWSWVRQPPGKGLEWIGEIYHSGSTNYNPSLKSRVTISVDKSKNQFSLKLSSVTAADTAVYYCARLPGYESAFDIWGQGTMVTVSSGGGGSGGGGSGGGGSEIVLTQSPGTLSLSPGERATLSCRASQSVSSSYLAWYQQKPGQAPRLLIYGASSRATGIPDRFSGSGSGTDFTLTISRLEPEDFAVYYCQQAGLFPYTFGGGTKVEIKFVPVFLPAKPTTTPAPRPPTPAPTIASQPLSLRPEACRPAAGGAVHTRGLDFACDIYIWAPLAGTCGVLLLSLVITLYCNHRNKRGRKKLLYIFKQPFMRPVQTTQEEDGCSCRFPEEEEGGCELRVKFSRSADAPAYQQGQNQLYNELNLGRREEYDVLDKRRGRDPEMGGKPRRKNPQEGLYNELQKDKMAEAYSEIGMKGERRRGKGHDGLYQGLSTATKDTYDALHMQALPPRGSGEGRGSLLTCGDVEENPG
notes: Chimeric antigen receptor on the cell surface; also called clone80-bbz
In the case of B1, the “in vitro cell killing efficiency, target cells NALM6-ffLuc, 17 h, E:T 0.5:1” value [1] is reported as 15.3%, the “in vitro cell killing efficiency, target cells NALM6-ffLuc, 17 h, E:T 1:1” value [1] is reported as 58.5% and the “in vitro cell killing efficiency, target cells NALM6-ffLuc, 17 h, E:T 2:1” value [1] is reported as 90.5%. For the same binder, the “percent of cells in Q1 (FITC-CD22 positive, APC-CD8 negative)” value [2] was 27.5%, the “percent of cells in Q2 (FITC-CD22 positive, APC-CD8 positive)” value [2] was 17.6% and the “in vitro cell killing efficiency, target cells REH-ffLuc, 17 h, E:T 0.5:1” value [3] was -18.2%. For the same binder, the “in vitro cell killing efficiency, target cells REH-ffLuc, 17 h, E:T 1:1” value [3] was 40.2%, the “in vitro cell killing efficiency, target cells REH-ffLuc, 17 h, E:T 2:1” value [3] was 89% and the “positive rate of CD107a in the CD8+/CAR+ cell population, target cell 3D11 (CD22 knockout/knockdown Raji)” value [4] was 18.9%. The “positive rate of CD107a in the CD8+/CAR+ cell population, target cell JVM2” value [4] was 32.8%, the “positive rate of CD107a in the CD8+/CAR+ cell population, target cell NALM6” value [4] was 59.7% and the “positive rate of CD107a in the CD8+/CAR+ cell population, target cell REH” value [4] was 62.3%. For the same binder, the “positive rate of CD107a in the CD8+/CAR+ cell population, target cell raji” value [4] was 39.7%.

B2: clone 17 anti-CD22 antibody in the form of IgG (antibody, V domains shown)
VH: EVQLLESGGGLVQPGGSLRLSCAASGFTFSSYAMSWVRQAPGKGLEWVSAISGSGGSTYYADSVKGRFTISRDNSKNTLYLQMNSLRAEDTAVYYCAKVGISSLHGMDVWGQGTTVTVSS
VL: DIQMTQSPSTLSASVGDRVTITCRASQSISSWLAWYQQKPGKAPKLLIYKASSLESGVPSRFSGSGSGTEFTLTISSLQPDDFATYYCQQYERFPWTFGGGTKVEIK
notes: Fully human; tested 'in the form of IgG'
In the case of B2, the Kd (human CD22 [5]) is reported as 1.6 nM, the Response (human CD22 [5]) is reported as 0.62 nm and the koff (human CD22 [5]) is reported as 0.0002 s⁻¹. It also gave a kon (human CD22 [5]) of 130000 M⁻¹ s⁻¹.

B3: clone 17 anti-CD22 antibody in the form of Fab (Fab, V domains shown)
VH: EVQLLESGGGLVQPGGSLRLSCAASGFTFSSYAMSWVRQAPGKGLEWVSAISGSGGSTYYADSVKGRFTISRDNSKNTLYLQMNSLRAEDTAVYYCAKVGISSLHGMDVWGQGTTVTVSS
VL: B2 VL
notes: Tested 'in the form of Fab'
Binder B3 has a Kd (human CD22 [6]) of 8.1 nM, a Response (human CD22 [6]) of 0.19 nm and a koff (human CD22 [6]) of 0.0017 s⁻¹. It also gave a kon (human CD22 [6]) of 210000 M⁻¹ s⁻¹.

B4: clone 28 anti-CD22 antibody in the form of IgG (antibody, V domains shown)
VH: QVQLQESGPGLVKPSETLSLTCTVSGGSISSYYWSWIRQPAGKGLEWIGRIYTSGSTNYNPSLKSRVTMSVDTSKNQFSLKLSSVTAADTAVYYCARDLYRDGMDVWGQGTTVTVSS
VL: B2 VL with Y49S, K50D, Y91A, E92N, R93T, F94Y, P95S, W96P
notes: as for B2
With B4 the Kd (human CD22 [5]) was 0.97 nM, the Response (human CD22 [5]) was 0.81 nm and the koff (human CD22 [5]) was 0.0002 s⁻¹. The kon (human CD22 [5]) was 210000 M⁻¹ s⁻¹.

B5: clone 28 anti-CD22 antibody in the form of Fab (Fab, V domains shown)
VH: B4 VH
VL: B2 VL with Y49S, K50D, Y91A, E92N, R93T, F94Y, P95S, W96P
notes: Tested 'in the form of Fab'
For B5, the Kd (human CD22 [6]) was 0.94 nM, the Response (human CD22 [6]) was 0.25 nm and the koff (human CD22 [6]) was 0.00027 s⁻¹. For the same binder, the kon (human CD22 [6]) was 280000 M⁻¹ s⁻¹.

B6: clone 28 CAR (CD22-targeted chimeric antigen receptor, clone 28 scFv with CD8α hinge and transmembrane region, 4-1BB and CD3z), on reporter cells or CAR-T cells (other)
chain: QVQLQESGPGLVKPSETLSLTCTVSGGSISSYYWSWIRQPAGKGLEWIGRIYTSGSTNYNPSLKSRVTMSVDTSKNQFSLKLSSVTAADTAVYYCARDLYRDGMDVWGQGTTVTVSSGGGGSGGGGSGGGGSDIQMTQSPSTLSASVGDRVTITCRASQSISSWLAWYQQKPGKAPKLLISDASSLESGVPSRFSGSGSGTEFTLTISSLQPDDFATYYCQQANTYSPTFGGGTKVEIKFVPVFLPAKPTTTPAPRPPTPAPTIASQPLSLRPEACRPAAGGAVHTRGLDFACDIYIWAPLAGTCGVLLLSLVITLYCNHRNKRGRKKLLYIFKQPFMRPVQTTQEEDGCSCRFPEEEEGGCELRVKFSRSADAPAYQQGQNQLYNELNLGRREEYDVLDKRRGRDPEMGGKPRRKNPQEGLYNELQKDKMAEAYSEIGMKGERRRGKGHDGLYQGLSTATKDTYDALHMQALPPRGSGEGRGSLLTCGDVEENPG
notes: Chimeric antigen receptor on the cell surface; The entry ends with GSG and the T2A remnant; also called clone28-bbz
With B6 the “in vitro cell killing efficiency, target cells NALM6-ffLuc, 17 h, E:T 0.5:1” value [1] was -26.8%, the “in vitro cell killing efficiency, target cells NALM6-ffLuc, 17 h, E:T 1:1” value [1] was 13.8% and the “in vitro cell killing efficiency, target cells NALM6-ffLuc, 17 h, E:T 2:1” value [1] was 76.1%. The “percent of cells in Q1 (FITC-CD22 positive, APC-CD8 negative)” value [2] was 23.3%, the “percent of cells in Q2 (FITC-CD22 positive, APC-CD8 positive)” value [2] was 12.7% and the “in vitro cell killing efficiency, target cells REH-ffLuc, 17 h, E:T 0.5:1” value [3] was -50.1%. For the same binder, the “in vitro cell killing efficiency, target cells REH-ffLuc, 17 h, E:T 1:1” value [3] was -23.9%, the “in vitro cell killing efficiency, target cells REH-ffLuc, 17 h, E:T 2:1” value [3] was 63.8% and the “positive rate of CD107a in the CD8+/CAR+ cell population, target cell 3D11 (CD22 knockout/knockdown Raji)” value [4] was 16.9%. The “positive rate of CD107a in the CD8+/CAR+ cell population, target cell JVM2” value [4] was 43.5%, the “positive rate of CD107a in the CD8+/CAR+ cell population, target cell NALM6” value [4] was 73.5% and the “positive rate of CD107a in the CD8+/CAR+ cell population, target cell REH” value [4] was 70.4%. For the same binder, the “positive rate of CD107a in the CD8+/CAR+ cell population, target cell raji” value [4] was 54.8%.

B7: clone 80 anti-CD22 antibody in the form of IgG (antibody, V domains shown)
VH: QVQLQESGPGLVKPSGTLSLTCAVSGGSISSSNWWSWVRQPPGKGLEWIGEIYHSGSTNYNPSLKSRVTISVDKSKNQFSLKLSSVTAADTAVYYCARLPGYESAFDIWGQGTMVTVSS
VL: EIVLTQSPGTLSLSPGERATLSCRASQSVSSSYLAWYQQKPGQAPRLLIYGASSRATGIPDRFSGSGSGTDFTLTISRLEPEDFAVYYCQQAGLFPYTFGGGTKVEIK
notes: as for B2
For B7, the Kd (human CD22 [5]) was 0.82 nM, the Response (human CD22 [5]) was 0.93 nm and the koff (human CD22 [5]) was 0.0002 s⁻¹. The kon (human CD22 [5]) was 240000 M⁻¹ s⁻¹.

B8: clone 80 anti-CD22 antibody in the form of Fab (Fab, V domains shown)
VH: B7 VH
VL: B7 VL
notes: Tested 'in the form of Fab'
B8 was tested, and the Kd (human CD22 [6]) was 13 nM, the Response (human CD22 [6]) was 0.24 nm and the koff (human CD22 [6]) was 0.0046 s⁻¹. The kon (human CD22 [6]) was 360000 M⁻¹ s⁻¹.

Source: US12448453 (NANJING IASO BIOTECHNOLOGY, dated 2025)
